Binding capacity (µg ASPHYA-ST per milliliter bed volume) and efficiency of binding data for 1 substance are collected here from patent US6046014.

Experiment [1] deals with streptavidin-agarose (immobilized streptavidin) (Streptomyces avidinii) (UniProt P22629). The experiment in a line: affinity chromatography on streptavidin-agarose.
For experiment [2] the target is unchanged. Put plainly: affinity chromatography: ammonium sulfate fraction passed over streptavidin-agarose.

The substance “Strep-tagged oat phytochrome A (ASPHYA-ST)” had a binding capacity (µg ASPHYA-ST per milliliter bed volume) in experiment [1] of 200. In experiment [2], this substance displayed an efficiency of binding of 86%.
